Source: the DeepSol protein solubility set

Assay: soluble on expression in E. coli; label from the status in PepcDB or PDB records

| Sequence | soluble on expression in E. coli |
| --- | --- |
| MTADRPALRTGDRDTRLSFGSNLSSFTDYLRGHAPELLPENRIGHRSHSTRGGDGMESGDLAPHGTTIVALTYKGGVLLAGDRRATQGNLIASRDVEAVYVTDEYSAAGIAGTAGIAIELVRLFAVELEHYEKIEGVPLTFDGKANRLASMVRGNLGAAMQGLAVVPLLVGYDLDADDESRAGRIVSYDVVGGRYEERAGYHAVGSGSLFAKSALKKIYSPDSDEETALRAAIESLYDAADDDSATGGPDLTRGIYPTAVTITQAGAVHVSEETTSELARRIVAERTEQGGSAR | soluble |
| MIVHELTDIGHLFTEQLQEGYYVIRETYQNVLVEPEDGDTVRQVDAGTEEVVTIVFDPGDEYSLICLDTYTFADGIPSLAELKETIAAEYDVFVNDRWAAPSL | not soluble |
| MFSIQQPLLVFSDLDGTLLDSHSYDWQPAAPWLTRLREANVPVILCSSKTSAEMLYLQKTLGLQGLPLIAENGAVIQLAEQWQEIDGFPRIISGISHGEISLVLNTLREKEHFKFTTFDDVDDATIAEWTGLSRSQAALTQLHEASVTLIWRDSDERMAQFTARLNELGLQFMQGARFWHVLDASAGKDQAANWIIATYQQLSGKRPTTLGLGDGPNDAPLLEVMDYAVIVKGLNREGVHLHDEDPARVWRTQREGPEGWREGLDHFFSAR | soluble |
| MSLSSDSGNSSGKTTIEWWNITTTEPAKKLWAQRAKEFEAAHPDVKIKIVTLENEAYKSKMTAQTASGKLPDIYHTWGGGVLEQQIDAGLVEDLTDRVSSWTDTYVPAALAAYRFDSRTYAVPFDIGAVGFWYNKALFKQAGIDTPPTTWSGFLDAVRSLKSAGITPIALAGKEKWPGMYYWAYLSMRVAGLDAMHKAATDADFTGDGFVKAGQHLKDLVALQPFQKGFLGAGYSTPTGEAAAMGNGKAAMELMGQWAPVVEKDAGKGLGKDLGFFSFPAVEGGKGALTEVFGGGGGHAVRKGAPEAAVEFLKFFGEKEFAGKLVKETGLIPVSKDARGALTDPNLTAVSDALNAATGFQLYLDQAYAPAVGQEINDSVAALVAGSKSPQQVTRSVTQVAKSEKSEGHHHHHH | not soluble |
| AHHHHHHGSNFQQEILIIKSEIYPIVSKHYPKNTRREVISLYDLITFAILAHLHFNGVYKHAYRVLIEEMKLFPKIRYNKLTERLNRHEKLLLLAQEELFKKHAREYVRILDSKPIQTKELARKNRKDKEGSSEIISEKPAVGFVPSKKSFTMGTS | not soluble |
| MKGLKERQDRRLGAFLGLAVGDALGAQVEGLPKGTFPEVREMKGGGPHRLPPGFWTDDTSQALCLAESLLQRGFDPKDQMDRYLRWYREGYRSATGVCFGLGHATRRALERYAATGDPYAGDEAGAGNGPLMRLAPLVLAYENHPDLLSLARRAARTTHGAREALEATEVLAWLLREALRGAPKEALLALEPFRGADLHPALRRVVEGGFWEAPEEGPGYAPGTLAAALWAFARGRDFEEGMRLAVNLGGDADTVGAVYGQLAGAYYGLGAIPGRWLRALHLREEMEALALALYRMSMASPRE | soluble |
| MGSDKIHHHHHHMELVKFGKLKEQSYTMKESLRALKTNIQFCGDDIRTLLVTSSVPNEGKSTVALDLARSLTESGNRVLFIDTDMRKSVLAGRLRATAASGGEICGLSHYLSGQRRLEEVMYGTEIPGLFMIFAGPSVPNPTEILEKKYFQELLNFGKEHFNYIIIDCAPIGAAIDAAVVAKYCDGAIIVIGQGMASARMIQSVKKQLEASGVRILGAVLNKVNNKKNSHVSGYYGNYYGSYYGRSDKA | not soluble |
| MFYKFLLFDLDHTLLDFDAAEDVALTQLLKEEGVADIQAYKDYYVPMNKALWKDLELKKISKQELVNTRFSRLFAHFGQEKDGSFLAQRYQFYLAQQGQTLSGAHDLLDSLIERDYNLYAATNGITAIQTGRLAQSGLAPYFNQVFISEQLQTQKPDALFYEKIGQQIAGFSKEKTLMIGDSLTADIQGGNNAGIDTIWYNPHHLENHTQAQPTYEVYSYQDLLDCLDKNILEKITF | not soluble |
| MREETFPGDIAQYFSVIHRAFLKDTKGEYAKYDLNPTNAYILLYLFFNKNSSQSELAQKLVINKGQITRETTKLLSLNFISKEISSKNRTTNVIAISSDGKKVIKKIIDIRNQWWEEKLKLSGVKTNSEFLDSLKKLESILN | not soluble |
| MGSDKIHHHHHHMAAVAHVKIDAAGEKRVLYLVDKSGFGGVQTIAYTLMRHGVDERIGMDFFFLRNINDRFGMEDVREPNVFYSRATHRYSLRPFVEILRFIREKKVSILHLNGNKSIILGLVIKKLFQPTIKIIAHEHGGVFDYSRWYAAFLKSFRNSFDLFITISNYRKHFLVERCLVAPSAIRVIDNFVDPARLATASASACGHTDRCDSEGDKPFVIGYVGGLSRIKGCDVLIRALPPLRERLGNFRVMIAGDGPARAELEELVAALGLGDIVSFLGFVDPPGIAYAQFDMMVIPSRSEEGPICLYEAWMMGLPVVASNAPVLNERIRDGETGILFQSDEPCDLAEKIYSVCRNPDVAAHIRAGGSCEAARHTVERYRGDLRDVYLSL | not soluble |
| MRIALFTDTYIPQVNGVARTMKRLVDHLEKRQVEYALYMPETIEKLDRFESNIHTFASLPFFLYPECRIALPNVFKLRQQLTSFQPDLLHIATPFNVGLSGLQHGKKYGIPMVGSYHTHFDHYLHYYKLQFMSAWLWKYVKWFHQPFERTFVPSVETMRHLQKHGFQRLALWTRGVDCERFHPKQRHRSYAINLLPKDKAVLLYVGRLAPEKDLATLVAIMSLLPRELNEKIQWMIVGDGPSLPEMKKQCPSNVTFTGYLKGEELAAAYASADLFVFPSATETFGNVVLEAFASGTPAIVADRGGVTEIVEHGKSGMICKAGDAHTFIQAIEHLLMNRSKRAEMGYEARQYALTQSWERIFDDLLEQYEQVIFHHKKRHLALEHHHHHH | not soluble |
| MSLDKPVIQIHTDNSSLIFRVADNGRLYQSYLGKKLNHEADISHLPQGTEAYITHGMEDYFEPAIHILHNDGNPSLLLKYVSHETKAVSQGVNETIITLGDDKYPVTVKLHYVTYPAEDIIKTYTEISHKEKKPVVLHQYASSMLHLNRAKYYLTEFSGDWAHEANISDQPLEFGKKVLDTKLGARANMFTPPFFQLSLDQLATENCGEVLVGTLGWTGNFRFTFEVDNKNELRIISGINPYASEYYLPAGVVFRTPDFYFTYSANGKGKASRNFHDWARRYQLKDGDETRMTLLNNWEATYFDFNEEKLIGLIGDAAGLGVDMFLLDDGWFANKYPRSSDHQGLGDWDETADKLPNGIGRLVEEATKKGIKFGLWIEPEMVNPKSELYEKHKDWVIHLPNRDEYYFRNQLVLDLSNPKVQDFVFGVVDDLMTKYPGIAFFKWDCNSPITNIYSSYLKEKQSHLYIDYVRGLYNVLERIKTKYPDLPMMLCSGGSGRIDYETLRYFTEFWPSDNTDPIERLFIQWGYSQLFPAKTLCAHVTTWNHDASIKFRTDVAMMGKLGFDIKLSDLNDNEKKFCRDAVTNYNHLKPVVLEGDMYRLVSPYSGNHTSTQYVGKDKKGAVVFAFDIYSRYGEKLLPVRLQGLDAGRQYRVKEINLMPGTNSEGHHHHHH | not soluble |
| MKFTETSLKLNPLTEITFFLTFGAKTMSNQWNSGIHDRKLKEEICEIGRRVYNKGFAAANDGNISIRVGENEVLCSPTMICKGFMKPDDICAVDLDGNQIAGTRKRTSEILLHLAIMKERPDVKAVVHCHPPHATAFAVAREPIPQCVLPEVEVFMGEVPMAPYETPGGQKFADTVVPFLKGGTNTIILTGHGTVTFGKSLEDAYWKTEILDAYCNILLLSKQLGRVTYFTENETRELLDLKKKLGFDDPRFHVEDCDLCGNSAFRDGYKEGIPQQKSFEPAPSYPGYLSKPSTQATPATNNGDSDQLIKAITDQVMSALGK | not soluble |
| DEAWLTEMLKRVNVLPEALVLTQAANESAWGTSRFATQANNLFGQWCYKQGCGIVPAQRAAGKTHEVQKFDSVQQSIHGYFMNVNRNPAYADLRDIRAMLADKHKNLFSVATASELTHGLLSYSERGIAYVNDLRSMIRHNNAYWTQ | not soluble |
| MGSDKIHHHHHHMTEYKKILVVINPTVDHQAALARAVELATKSNASITAFLSIYDFSYEMTSILSSHEREAMRQGVIDQRSAWLDTAIAPFNSAGVAIDSKVIWHNRPFESVINCALEGQYDLIVKSTHEHDKLKAVIFTPTDWHLMRKAPMPVLMVKEHDWPVAGKILCALNVASEDSEHQTLNGKIIEHAKDLATKFSADVHLVNGYPGTPVNLAIELPDFDAHAYNNNIRMQHQSRVECLAQAYDIPLDRCHVEEGLPEDVIPEVADRIDAELVILGTVGRTGFSAALIGNTAEHVIDSIRCDLLAIKPEGYVSPLAE | not soluble |
| MGSDKIHHHHHHMNWWLDPRIFEADNSELAMVLHPEWLNRRDVETIICDGSVRAGKTLIMSMSYVLWSMTNYNEEQFGIAGKTIGSLRRNVIRPLMRMLRGRGYEVKDKRADNLLVISHNGVTNYYYLFGGKDEGSQDLVQGITVAGFFFDEVALMPESFVNQATARASVDGAKFWFNCNPAGPYHWFKLEWLDQLDQHKAIHIHFTMKDNPSLSPETIDRYERMYTGVFYQRFILGQWVLSDGIIYDNFDKNKMVVKNPQGTARKYAVSIDYGTLNPTVFLMWGLYGDTWHLTKMYYYDGRHKHKQKTDEEYSAELDRFEDGLNPVEIIDPSAASFITLRRRGGHHVIKADNDVLDGIRKTGMAMNTGKIVFSPDLADLFKEFASYVWDEKAAEHGEDKPVKQHDHAMDAMRYFVMYMIGRQPTIQTFKLG | not soluble |
| PTHIAIGIYFNPEIAPAPFISLIETNQCALAVRKYANEVGIPTVRDVKLARKLYKTHTKYSFVDFEHLDEVLRLIVWLEQVENTHLEHHHHHH | soluble |
| MKKLLAGVLVSAIAFAKPVFMDAEWAKQFCEVWNNTPELVEKLGKSESWTEVPERKLFLYRKDCGPEKQIQLTIKNENGRAVCVYGGWKKDEKTDNDFLMYADTKRWLEMGRKEYGPMKAMLFGRLKFEGPRFVAMKNMGPFEAFLDKIDEVEADTSRCP | not soluble |
| MTLSILVAHDLQRVIGFENQLPWHLPNDLKHVKKLSTGHTLVMGRKTFESIGKPLPNRRNVVLTSDTSFNVEGVDVIHSIEDIYQLPGHVFIFGGQTLFEEMIDKVDDMYITVIEGKFRGDTFFPPYTFEDWEVASSVEGKLDEKNTIPHTFLHLIRKK | soluble |
| MAEGGTPVVATKPPVDNAKMLGELKLRLMHTKKGLLAIRGELQRRAEIWGAAQEEITALEKMASDAKERIQKQSDQKREERKLAAQKRKELKQKQKEEKKEESKDEKDGADDEKNDEN | not soluble |
| SKLSPIIMIPGSSATENRFDGLVRKLNQDRRGTKHSLLKVKVWNNGRITFEGKIRKNDNEPIIVIGFENNKDGYSNIKKQAKMMNQAFEALQNKYNFNNFKGLAHSNGGLIYTAFIENDLSDYDVKINSLMTIGTPYNFTETNIKNKSVMLADFIAAKENIPSTLHVYSVAGTITYDSDELVPDASVSAGKYIYQNQAKSYTEITVTGEDAQHSDLPTNDEVVDLIKQHIEGQGLRKKQKTKLEPQ | not soluble |
| NGAQAFVSAQTSTIPKTAFTAHDFVDYTLPQEQKGKEQKEQQWMKNSQTKDTDVHPYADFAVLEILLFPDSSTDRKIFNHFIQPAIRAYKQLGDSLNIFANQTLDQPKHNRYYLLGYPFLRNKAASLFLNQTEQR | soluble |
| ELNHRVKNTLATVQAIASLTVNSSTSLDSFRKSFDARLFALSQARAEWMSTELADLLAQLQDVNGGQHRITFTGDP | not soluble |
